Patent US7056679 (ANTYRA, dated 2006)

Columns and labels:
[1] = molecular target: T1, DGI-2 polypeptide (UniProt Q15004 1-111, limits assumed); experiment: phage ELISA, 405 nm; DGI-2 coated
T1 construct: Vector-derived residues or tag of pIVEX2.3 are not described for this construct; also called KIAA0101
T1 sequence (looked up): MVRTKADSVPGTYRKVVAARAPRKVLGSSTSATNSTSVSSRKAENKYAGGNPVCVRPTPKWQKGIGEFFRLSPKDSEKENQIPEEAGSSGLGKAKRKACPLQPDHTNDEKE
Protocol: (§1) For analysis of individual target binders, colonies were picked and phage prepared as described above using helper phage, M13KO7. Ninety-six-well microtiter plates were coated with 500 ng/well of specific target protein, 500 ng/well lactate dehydrogenase (LDH) irrelevant or non-specific target, 500 ng/well of positive control antibody raised against ETAG, and negative control of non-fat milk powder-PBS 2% at 4° C. overnight. Plates were then blocked with 350 microliters/well PBS containing 2% non-fat milk for 1 hr at room temperature. One hundred microliters per well of phage from isolated clones were added and plates were incubated at room temperature for 2 hr after centrifuging samples for 20 minutes at 3500 rpm at 4° C. The phage solution was then removed, and the wells were washed three times with PBS at room temperature. Antibody raised against M13 conjugated to horseradish peroxidase (Pharmacia) was diluted 1:3000 in PBS-Tween and added to each well (100 µl/well). Incubation was for 1 hr at room temperature, followed by washing with PBS-(0.5%) Tween 3 times as described. Color was developed by addition of ABTS solution (100 µl/well; Boehringer, Indianapolis, Ind.). Plates were analyzed at 405 nm. A clone was considered "positive" if the $A405$ of the well was $\geq$2-fold over background.

[2] = molecular target: T2, antibody raised against ETAG; experiment: phage ELISA, 405 nm; anti-E-tag antibody coated
T2 construct: read-out of display; also called E-tag antibody; E tag antibody
Protocol: as §1

[3] = molecular target: T1, DGI-2 polypeptide; experiment: phage ELISA, 405 nm; DGI-2 signal over LDH signal
Protocol: as §1

B1: DGI-2-20R-4-G32 (peptide)
peptide: LSVFRPGQFPHVGARGVSRTAAAGAPVPYPDPLEPRP
notes: not shown: phage gene III coat protein (pCANTAB5E)
- DGI-2 (OD) [1]: 1.4 OD
- ETAG (OD) [2]: 11 OD
- DGI-2/LDH (OD) [3]: 1.2 ratio

B2: DGI-2-40F-3-B5 (peptide)
peptide: RSRSSSGASGSMLRVQNHMVLGSWMVRQPMGSMTPFHGHGAAAGAPVPYPDPLEPRP
notes: as for B1
- DGI-2 (OD) [1]: 1 OD
- ETAG (OD) [2]: 9.2 OD
- DGI-2/LDH (OD) [3]: 1.2 ratio

B3: DGL-2-40F-3-D10 (peptide)
peptide: TLVTEGNKGSVKAHKDIGVWQLWWDWLSVTDSETVGRVSHAAAGAPVPYPDPLEPRP
notes: as for B1
- DGI-2 (OD) [1]: 1.5 OD
- ETAG (OD) [2]: 10.3 OD
- DGI-2/LDH (OD) [3]: 1.7 ratio

B4: DGI-2-40F-3-C52 (peptide)
peptide: GLLFTSSPYQCFWVHCTLTMSPLSVLGDLSSTIGRMRASRAAAGAPVPYPDPLEPRP
notes: as for B1
- DGI-2 (OD) [1]: 1 OD
- ETAG (OD) [2]: 4.6 OD
- DGI-2/LDH (OD) [3]: 1.3 ratio

B5: DGI-2-40F-3-B11 (peptide)
peptide: LAPMFLQNQVRTWAASRRPLPAGPSNARCETGSLSPWVPCAAAGAPVPYPDPLEPRP
notes: as for B1
- DGI-2 (OD) [1]: 1.8 OD
- ETAG (OD) [2]: 7.9 OD
- DGI-2/LDH (OD) [3]: 2 ratio

B6: DGI-2-20R-4-E4 (peptide)
peptide: LTWGPQFGSLQVYSRHRGLPAAAGAPVPYPDPLEPRP
notes: as for B1
- DGI-2 (OD) [1]: 1.6 OD
- ETAG (OD) [2]: 18.1 OD
- DGI-2/LDH (OD) [3]: 1.3 ratio

B7: DGI-2-20F-3-B1 (peptide)
peptide: LSRIWRGVIESAREVESRGIAAAGAPVPYPDPLEPRP
notes: as for B1
- DGI-2 (OD) [1]: 1.2 OD
- ETAG (OD) [2]: 11.4 OD
- DGI-2/LDH (OD) [3]: 1.2 ratio

B8: DGI-2-20C-3-D12 (peptide)
peptide: LVIQCSASVVACDLYWNYVGCLAAGAAAGAPVPYPDPLEPRP
notes: as for B1
- DGI-2 (OD) [1]: 1.1 OD
- ETAG (OD) [2]: 3.6 OD
- DGI-2/LDH (OD) [3]: 1.1 ratio

B9: DGI-2-40F-3-B10 (peptide)
peptide: MQAASTLSTYMGAIRMGYPILHWDRGGVQRVDPGLYRGRVAAAGAPVPYPDPLEPRP
notes: as for B1
- DGI-2 (OD) [1]: 1.3 OD
- ETAG (OD) [2]: 4.8 OD
- DGI-2/LDH (OD) [3]: 1.4 ratio

B10: DGI-2-40F-3-B116 (peptide)
peptide: GVVRAQQGLRYELQGDRYRLRRTQWLTVTYCSPSWAFAGCAAAGAPVPYPDPLEPRP
notes: as for B1
- DGI-2 (OD) [1]: 1.7 OD
- ETAG (OD) [2]: 6.5 OD
- DGI-2/LDH (OD) [3]: 2 ratio

B11: DGI-2-40F-3-C92 (peptide)
peptide: RFWSVSYQGGRVMCREWGYCLPIAAAGAPVPYPDPLEPRP
notes: as for B1
- DGI-2 (OD) [1]: 2.1 OD
- ETAG (OD) [2]: 9.8 OD
- DGI-2/LDH (OD) [3]: 2.6 ratio

B12: DGI-2-40F-3-C7 (peptide)
peptide: HPWVTNMLVFQRPPPPGFWLSDTTPRQRNGLGQVERPSVDAAAGAPVPYPDPLEPRP
notes: as for B1
- DGI-2 (OD) [1]: 1.2 OD
- ETAG (OD) [2]: 8.8 OD
- DGI-2/LDH (OD) [3]: 1.5 ratio

B13: DGI-2-40F-3-D9 (peptide)
peptide: RRTSADTDQLSRWEGAQAFSSLRSALSERLDSLRPGLPPSAAAGAPVPYPDPLEPRP
notes: as for B1
- DGI-2 (OD) [1]: 1.1 OD
- ETAG (OD) [2]: 15.8 OD
- DGI-2/LDH (OD) [3]: 1.4 ratio

B14: DGI-2-20F-3-A6 (peptide)
peptide: FSSTGILLRSGRATAVGHVTAAAGAPVPYPDPLEPRP
notes: as for B1
- DGI-2 (OD) [1]: 1.5 OD
- ETAG (OD) [2]: 13.2 OD
- DGI-2/LDH (OD) [3]: 1.4 ratio

B15: DGI-2-20R-4-G6 (peptide)
peptide: PAMGHCMQVLGPVLEGRSRDQVGRAAAGAPVPYPDPLEPRP
notes: as for B1
- DGI-2 (OD) [1]: 1.6 OD
- ETAG (OD) [2]: 11.5 OD
- DGI-2/LDH (OD) [3]: 1.4 ratio

B16: DGI-2-20F-3-D112 (peptide)
peptide: YDQVWNSLLAAVLGGQELVNAAAGAPVPYPDPLEPRP
notes: as for B1
- DGI-2 (OD) [1]: 1.4 OD
- ETAG (OD) [2]: 19.9 OD
- DGI-2/LDH (OD) [3]: 1.4 ratio

B17: DGI-2-40F-3-B95 (peptide)
peptide: DYKTCVSQHVHPLFGEYFYHKVTHMSILSPTFRVTSLYGKAAAGAPVPYPDPLEPRP
notes: as for B1
- DGI-2 (OD) [1]: 1 OD
- ETAG (OD) [2]: 5.4 OD
- DGI-2/LDH (OD) [3]: 1.2 ratio

B18: DGI-2-20F-3-A7 (peptide)
peptide: LSLLSVVVRSMGASAPQRQVAAAGAPVPYPDPLEPRP
notes: as for B1
- DGI-2 (OD) [1]: 2.1 OD
- ETAG (OD) [2]: 7 OD
- DGI-2/LDH (OD) [3]: 2.4 ratio

B19: DGI-2-20F-3-B7 (peptide)
peptide: WAGSTDLWQLWSLWVKPELRAAAGAPVPYPDPLEPRP
notes: as for B1
- DGI-2 (OD) [1]: 1.6 OD
- ETAG (OD) [2]: 16.4 OD
- DGI-2/LDH (OD) [3]: 1.6 ratio

B20: DGI-2-20R-3-C10 (peptide)
peptide: SLSLYWDAQVGCEVFWGYCVAAAGAPVPYPDPLEPRP
notes: as for B1
- DGI-2 (OD) [1]: 2.2 OD
- ETAG (OD) [2]: 14.7 OD
- DGI-2/LDH (OD) [3]: 2.1 ratio

B21: DGI-2-20F-3-C2 (peptide)
peptide: MAVLPAARDFGGVVQGGVSGAAAGAPVPYPDPLEPRP
notes: as for B1
- DGI-2 (OD) [1]: 1.3 OD
- ETAG (OD) [2]: 11.5 OD
- DGI-2/LDH (OD) [3]: 1.3 ratio

B22: DGI-2-20R-4-E5 (peptide)
peptide: LHRLGQSMGGTLDHLQGWGVAAAGAPVPYPDPLEPRP
notes: as for B1
- DGI-2 (OD) [1]: 1.2 OD
- ETAG (OD) [2]: 17.9 OD
- DGI-2/LDH (OD) [3]: 1.1 ratio

B23: DGI-2-40F-3-A24 (peptide)
peptide: RCFQDGRMLALSPTYLIRRSVSPLVVGPLPTPAAAGAPVPYPDPLEPRP
notes: as for B1
- DGI-2 (OD) [1]: 1.3 OD
- ETAG (OD) [2]: 11.7 OD
- DGI-2/LDH (OD) [3]: 1.4 ratio

B24: DGI-2-20R-4-G8 (peptide)
peptide: GMWIRPNGHMFLQGGYTARSAAAGAPVPYPDPLEPRP
notes: as for B1
- DGI-2 (OD) [1]: 1.5 OD
- ETAG (OD) [2]: 14.5 OD
- DGI-2/LDH (OD) [3]: 1.4 ratio

B25: DGI-2-20C-3-C65 (peptide)
peptide: TPDRCLIYSSIQCLLEYSARRGSADAAAGAPVPYPDPLEPRP
notes: as for B1
- DGI-2 (OD) [1]: 1.8 OD
- ETAG (OD) [2]: 7.4 OD
- DGI-2/LDH (OD) [3]: 1.8 ratio

B26: DGI-2-40F-3-B72 (peptide)
peptide: PKDGAAFKGSDFIQGGQTVMERAPALWWRDGGGQWEAPSTAAAGAPVPYPDPLEPRP
notes: as for B1
- DGI-2 (OD) [1]: 1 OD
- ETAG (OD) [2]: 10.4 OD
- DGI-2/LDH (OD) [3]: 1.3 ratio

B27: DGI-2-20F-3-C3 (peptide)
peptide: FSSVLGLLDRRGVPVVVGEDAAAGAPVPYPDPLEPRP
notes: as for B1
- DGI-2 (OD) [1]: 1.1 OD
- ETAG (OD) [2]: 11.6 OD
- DGI-2/LDH (OD) [3]: 1.1 ratio

B28: DGI-2-20R-3-D5 (peptide)
peptide: VAFGEQIRVAMAGTLWQRWRAAAGAPVPYPDPLEPRP
notes: as for B1
- DGI-2 (OD) [1]: 1.5 OD
- ETAG (OD) [2]: 8.5 OD
- DGI-2/LDH (OD) [3]: 1.4 ratio

B29: DGI-2-20R-3-C12 (peptide)
peptide: RWSLPAYLCRFVSQASCNSRAAAGAPVPYPDPLEPRP
notes: as for B1
- DGI-2 (OD) [1]: 1.6 OD
- ETAG (OD) [2]: 14.6 OD
- DGI-2/LDH (OD) [3]: 1.6 ratio

B30: DGI-2-40F-3-B122 (peptide)
peptide: HSGNRQSGSRRTHLLNIFCSSDTFVFPGWSAYLSRVCPGDAAAGAPVPYPDPLEPRP
notes: as for B1
- DGI-2 (OD) [1]: 1.7 OD
- ETAG (OD) [2]: 11 OD
- DGI-2/LDH (OD) [3]: 2.2 ratio

B31: DGI-2-40F-3-B4 (peptide)
peptide: LWLPCGLLVRPAQFYFYFSPLRHFLSSSVGSLSFPLSLLVAAAGAPVPYPDPLEPRP
notes: as for B1
- DGI-2 (OD) [1]: 1 OD
- ETAG (OD) [2]: 1.5 OD
- DGI-2/LDH (OD) [3]: 1.1 ratio
